“Also recorded” adds a separate entry of the source.
Columns and labels:
APC/C^Cdc20 = biological target: T1, APC/C^Cdc20 (Saccharomyces cerevisiae, UniProt P16522+P53886); assay: biochemical; type: biochemical; conditions: 220 μM peptide; 35S-Pds1 substrate; time course 0-60 minutes; vs buffer only; n = 3
T1 construct: constructed within full-length Cdc20 by site-directed mutagenesis for analysis in vitro in the APC/C^Cdc20 assay; The APC/C was purified for enzyme assays from 1 mL of TAP-tagged Cdc16 yeast extract (SCSY51); made in house; host or cells: Cdc20: in vitro transcription/translation in rabbit reticulocyte lysate, used unpurified; APC/C: S. cerevisiae strain SCSY51 (Cdc16-TAP) extract, captured on IgG magnetic beads
Protocol: (§1) Full-length, radio-labeled protein purifications were preformed as previously described. ^35S-Pds1 was prepared in a 500 μL IVT/T (In Vitro Transcription/Translation) reaction (Promega, USA), which contained 400 μL rabbit reticulocyte lysate, 20 μL of L-^35S-methionine (PerkinElmer, USA), 10 μg of plasmid DNA, and the remaining volume as nuclease-free ddH2O as recommended by the manufacturer. The reaction mixture was incubated for 2 hours at room temperature and gently mixed every 30 minutes. The reaction was added to pre-equilibrated IgG Sepharose beads (GE Healthcare, USA) in Bio-spin disposable chromatography columns (Bio-Rad, USA) for binding for 2 hours at room temperature. To ensure efficient binding, the beads were re-suspended several times every 30 minutes. After binding, the beads were washed with 5 mL wash buffer, containing 200 mM 4-(2-hydroxyethyl)-1-piperazineethanesulfonic acid (HEPES) at pH 8.0, 150 mM NaCl, 10% (v/v) glycerol, and 1 mM dithiothreitol (DTT). The ^35S-Pds1 was cleaved from the beads using TEV (Tobacco Etch Virus) protease in 1x TEV buffer (Invitrogen, USA) for 2 hours at room temperature, and the mixture was re-suspended several times every 30 minutes to promote efficient cleavage. The elution was collected and concentrated by employing an Amicon Ultra filter column (Millipore, Ireland). The concentrated ^35S-Pds1 was collected in a new tube, and stored at -20 °C.
(§2) The production of Cdc20 or Cdh1 was prepared by IVT/T reactions, where 16 μL of rabbit reticulocyte lysate, 20 μM L-methionine, 0.4 μg of plasmid DNA, and a volume of nuclease-free ddH2O for a total volume of 20 μL. This freshly synthesized Cdc20 or Cdh1 protein was used directly in all APC/C assays after a 1-hour synthesis reaction at room temperature. The APC/C was purified for enzyme assays from 1 mL of TAP-tagged Cdc16 yeast extract (SCSY51) where extract was mixed with 50 μL 50:50 slurry magnetic beads (Invitrogen, Norway) for 2 hours at 4 °C. After incubation, the beads were washed with 3 mL APC/C wash buffer (200 mM of HEPES, 150 mM of NaCl and 10% (v/v) of glycerol). APC/C bound to IgG magnetic beads was used directly in the enzyme assays.
(§3) APC/C assays were performed by adding the reaction contents in following order: 4.3 μL of QAH buffer, 20 μL of rabbit reticulocyte lysate containing Cdc20 or Cdh1 with or without an additional volume of recombinant checkpoint protein(s) or inhibitor peptides, 2.4 μL ubiquitin aldehyde (Boston Biochem, USA), APC/C, 16 μL pre-charged E1/E2/ATP/ubiquitin mix, and 13.3 μL of ^35S-Pds1 with QAH buffer (20 mM HEPES at pH 8.0, 100 mM NaCl, and 1 mM MgCl2). The E1/E2/ATP/ubiquitin mix were pre-charged by mixing 1 μL of E1 (Boston Biochem, USA), 1 μL of E2 (Boston Biochem, USA), 14.4 μL of ATP, 14.4 μL of […] (Boston Biochem, USA), and 17.2 μL of QAH buffer and incubated for 15 minutes at room temperature. Approximately 15 μL of samples were taken out at each time point, and the reaction was stopped by the addition of 2x protein sample buffer (125 mM Tris-HCl pH 6.8, 4% SDS, 20% glycerol, and 0.002% bromophenol blue, with 10% (final v/v) 2-mercaptoethanol added in fresh directly before use).
For inhibitor titration and time-course experiments, recombinant Bub3, Mad2, Mad3, and the Mad3-Bub3 complex were expressed and purified as previously described. […] For inhibition of APC/C the co-factor Cdc20 or Cdh1 was made fresh by IVT/T, and pure recombinant checkpoint proteins or inhibitor peptides were added to the IVT/T mixture and incubated for an additional hour at room temperature. In titrations, a dilution series of the checkpoint protein(s) were made before incubation with the Cdc20 co-factor. SDS-PAGE was performed using stand protocols (BioRad, USA).

APC/C^Cdh1 = APC/C^Cdh1 enzyme assay (ubiquitination of 35S-Pds1); type: biochemical, Saccharomyces cerevisiae; conditions: 220 μM peptide; 35S-Pds1 substrate; time course 0-60 minutes; vs buffer; n = 3
Protocol: as §1, §2
APC/C assays were performed by adding the reaction contents in following order: 4.3 μL of QAH buffer, 20 μL of rabbit reticulocyte lysate containing Cdc20 or Cdh1 with or without an additional volume of recombinant checkpoint protein(s) or inhibitor peptides, 2.4 μL ubiquitin aldehyde (Boston Biochem, USA), APC/C, 16 μL pre-charged E1/E2/ATP/ubiquitin mix, and 13.3 μL of ^35S-Pds1 with QAH buffer (20 mM HEPES at pH 8.0, 100 mM NaCl, and 1 mM MgCl2). […]

APC/C = APC/C activity promoted by mutant Cdc20 alleles (Pds1 remaining); type: biochemical, Saccharomyces cerevisiae
Protocol: as §2, §3
For APC/C activity assays dried-gels were exposed on a phosphor screen cassette to detect radio-labeled protein. The phosphor screen was scanned by a Typhoon phosphor-imager (GE Healthcare Bio-Sciences, USA), and radio-labeled protein bands in gels were quantified by employing the ImageQuant software (GE Healthcare Bio-Sciences, USA) according to the manufacturer’s protocols. Data were expressed as mean ± standard deviation, and was analyzed using Student’s t-test. Graphs were created using Kaliedograph 4.0 (Synergy Software, USA) and estimates of best-fit curves of a 4-parameter Hill equation were generated to obtain estimates for the median inhibitory concentrations (IC50) and Hill coefficients (Hc) using IgorPro 6.01 (Wavemetrics, USA).
By sequence alignment and amino acid homology alone, the budding yeast KILR-motif may be defined as 201-RILQ-204 (Fig 1A). However, the next residue, Tyrosine Y205 had previously been isolated in a genetic screen for spindle checkpoint by-pass alleles of Cdc20 [21], indicating this Y205 residue may be a target of the spindle checkpoint inhibition, and thus might also be a functional KILR-motif residue that contributes to APC/C activation. To clarify this possibility, we took the initial step to characterize several of the previously isolated spindle checkpoint by-pass mutant alleles of Cdc20 [21], and also Cdc20 mutants in the two highly conserved residues within the Mad2-binding motif, the aspartic acid at D197 of unknown function and the highly conserved Leucine L203 within the KILR-motif based on sequence alignment and homology. […]

Molecule	inhibition of APC/C^Cdc20 activity (in words) (APC/C^Cdc20)	inhibition of APC/C^Cdh1 activity (in words) (APC/C^Cdh1)	ability of mutant Cdc20 to promote APC/C activity (in words) (APC/C; vs wild type Cdc20, n = 3)	ability of mutant Cdc20 to promote APC/C activity (in words) (APC/C; vs wild type Cdc20, n = 3, listed as Cdc20-CB)
C-box2: C-box2 (Cdc20 130–196) containing the region between the C-box and the Mad2-binding motif (peptide, UniProt P26309 130-196, looked up, fragment) TTSREVDEQFTVAADRYIPILQGASQNKVDPETLHEALPPPNASPISHLRAQTKIVFKQNVAEACGL	observed to inhibit APC/C^Cdc20 activity; also recorded: A significant level of APC/C^Cdc20 inhibition was observed only in the presence of the C-box2 peptide	also inhibited APC/C^Cdh1 activity; also recorded: A significant level of APC/C^Cdh1 inhibition was observed		
Cdc20-CB (I147A, P148A): control mutant with mutations in two residues within the C-box (protein, UniProt P26309 1-610, looked up, variant I147A P148A) APC/C activator protein CDC20: MPESSRDKGNAAISGNRSVLSIASPTKLNILSSDWSRNQGKVSKNSLKRSSSLNIRNSKRPSLQASANSIYSRPKITIGAPPLIRRDSSFFKDEFDAKKDKATFSAYSSRSYPTIGSESVVSQTSLSQPTTSREVDEQFTVAADRYAAILQGASQNKVDPETLHEALPPPNASPISHLRAQTKIVFKQNVAEACGLDMNKRILQYMPEPPKCSSLRQKSYIMKKRTHYSYQQEQKIPDLIKLRKINTNPERILDAPGFQDDFYLNLLSWSKKNVLAIALDTALYLWNATTGDVSLLTDFENTTICSVTWSDDDCHISIGKEDGNTEIWDVETMSLIRTMRSGLGVRIGSLSWLDTLIATGSRSGEIQINDVRIKQHIVSTWAEHTGEVCGLSYKSDGLQLASGGNDNTVMIWDTRTSLPQFSKKTHTAAVKALSWCPYSPNILASGGGQTDKHIHFWNSITGARVGSINTGSQVSSLHWGQSHTSTNGGMMNKEIVATGGNPENAISVYNYETKFKVAEVVHAHEARICCSQLSPDGTTLATVGGDENLKFYKIFDPRCTGRSREDGLMDGMLGLIGKEGCRTNDKENRSKNSSEIHTRRPSSTSQYLIR			displayed decreased APC/C activity; also recorded: consistently displayed a decrease in APC activity	had no APC/C activity
Cdc20-L203A: mutant allele of Cdc20 in the conserved KILR-motif (protein, UniProt P26309 1-610, looked up, variant L203A) APC/C activator protein CDC20: MPESSRDKGNAAISGNRSVLSIASPTKLNILSSDWSRNQGKVSKNSLKRSSSLNIRNSKRPSLQASANSIYSRPKITIGAPPLIRRDSSFFKDEFDAKKDKATFSAYSSRSYPTIGSESVVSQTSLSQPTTSREVDEQFTVAADRYIPILQGASQNKVDPETLHEALPPPNASPISHLRAQTKIVFKQNVAEACGLDMNKRIAQYMPEPPKCSSLRQKSYIMKKRTHYSYQQEQKIPDLIKLRKINTNPERILDAPGFQDDFYLNLLSWSKKNVLAIALDTALYLWNATTGDVSLLTDFENTTICSVTWSDDDCHISIGKEDGNTEIWDVETMSLIRTMRSGLGVRIGSLSWLDTLIATGSRSGEIQINDVRIKQHIVSTWAEHTGEVCGLSYKSDGLQLASGGNDNTVMIWDTRTSLPQFSKKTHTAAVKALSWCPYSPNILASGGGQTDKHIHFWNSITGARVGSINTGSQVSSLHWGQSHTSTNGGMMNKEIVATGGNPENAISVYNYETKFKVAEVVHAHEARICCSQLSPDGTTLATVGGDENLKFYKIFDPRCTGRSREDGLMDGMLGLIGKEGCRTNDKENRSKNSSEIHTRRPSSTSQYLIR			displayed decreased APC/C activity; also recorded: had no APC/C activity; also recorded: consistently displayed a decrease in APC activity	

From article PMC5993284, “Peptide inhibitors of the anaphase promoting-complex that cause sensitivity to microtubule poison” (PLoS ONE, 2018)
